The results in this text go back to patent publication US20130157929A1, “GLUCAGON ANALOGUES” (ZEALAND PHARMA A/S, published 2013).

Starred links: 1 amine or outer side, 2 acyl side, 3 side chain; linkers in the order of their positions; H or OH if unused. Non-standard residues stand in square brackets, D forms with d. Groups on a side chain read outwards from the residue. *: point of attachment. γGlu = O=C(O)[C@H](CCC(=O)[*:2])N[*:1]; Palmitoyl = CCCCCCCCCCCCCCCC(=O)*; hPhe = N[C@@H](CCc1ccccc1)C(=O)O; Aib = CC(C)(N)C(=O)O

Test [1] addresses human glucagon receptor (glucagon-R) (human, UniProt P47871). The test can be described thus: cell-based or functional assay.
Test [2] addresses human glucagon-like peptide 1 receptor (GLP-1R) (human, UniProt P43220). The test can be described thus: cell-based or functional assay.

B1: Compound 14 (peptide)
peptide: H-H[Aib][hPhe]GTFTSDYSKYLDSK([γGlu-Palmitoyl])AAHDFVEWLLSA-NH2
SMILES: CCCCCCCCCCCCCCCC(=O)N[C@@H](CCC(=O)NCCCC[C@H](NC(=O)[C@H](CO)NC(=O)[C@H](CC(=O)O)NC(=O)[C@H](CC(C)C)NC(=O)[C@H](Cc1ccc(O)cc1)NC(=O)[C@H](CCCCN)NC(=O)[C@H](CO)NC(=O)[C@H](Cc1ccc(O)cc1)NC(=O)[C@H](CC(=O)O)NC(=O)[C@H](CO)NC(=O)[C@@H](NC(=O)[C@H](Cc1ccccc1)NC(=O)[C@@H](NC(=O)CNC(=O)[C@H](CCc1ccccc1)NC(=O)C(C)(C)NC(=O)[C@@H](N)Cc1c[nH]cn1)[C@@H](C)O)[C@@H](C)O)C(=O)N[C@@H](C)C(=O)N[C@@H](C)C(=O)N[C@@H](Cc1c[nH]cn1)C(=O)N[C@@H](CC(=O)O)C(=O)N[C@@H](Cc1ccccc1)C(=O)N[C@H](C(=O)N[C@@H](CCC(=O)O)C(=O)N[C@@H](Cc1c[nH]c2ccccc12)C(=O)N[C@@H](CC(C)C)C(=O)N[C@@H](CC(C)C)C(=O)N[C@@H](CO)C(=O)N[C@@H](C)C(N)=O)C(C)C)C(=O)O
B1: the “EC50 (nM) GluR, cAMP formation” value in test [1] stood at 8.9 nM. In test [2], the “EC50 (nM) GLP-1R, cAMP formation” value was 3.5 nM.

B2: Compound 19 (peptide)
peptide: H-H[Aib]IGTFTSDYSKYLDSK([γGlu-Palmitoyl])AAHDFVEWLLSA-NH2
SMILES: CCCCCCCCCCCCCCCC(=O)N[C@@H](CCC(=O)NCCCC[C@H](NC(=O)[C@H](CO)NC(=O)[C@H](CC(=O)O)NC(=O)[C@H](CC(C)C)NC(=O)[C@H](Cc1ccc(O)cc1)NC(=O)[C@H](CCCCN)NC(=O)[C@H](CO)NC(=O)[C@H](Cc1ccc(O)cc1)NC(=O)[C@H](CC(=O)O)NC(=O)[C@H](CO)NC(=O)[C@@H](NC(=O)[C@H](Cc1ccccc1)NC(=O)[C@@H](NC(=O)CNC(=O)[C@@H](NC(=O)C(C)(C)NC(=O)[C@@H](N)Cc1c[nH]cn1)[C@@H](C)CC)[C@@H](C)O)[C@@H](C)O)C(=O)N[C@@H](C)C(=O)N[C@@H](C)C(=O)N[C@@H](Cc1c[nH]cn1)C(=O)N[C@@H](CC(=O)O)C(=O)N[C@@H](Cc1ccccc1)C(=O)N[C@H](C(=O)N[C@@H](CCC(=O)O)C(=O)N[C@@H](Cc1c[nH]c2ccccc12)C(=O)N[C@@H](CC(C)C)C(=O)N[C@@H](CC(C)C)C(=O)N[C@@H](CO)C(=O)N[C@@H](C)C(N)=O)C(C)C)C(=O)O
With B2, in test [1], the “EC50 (nM) GluR, cAMP formation” value is 0.74 nM and the “EC50 (nM) GluR, cAMP formation, earlier determination” value stood at 3 nM. Further, the “EC50 (nM) GLP-1R, cAMP formation” value in test [2] turned out to be 0.16 nM.

B3: Compound 15 (peptide)
peptide: H-H[Aib]WGTFTSDYSKYLDSK([γGlu-Palmitoyl])AAHDFVEWLLSA-NH2
SMILES: CCCCCCCCCCCCCCCC(=O)N[C@@H](CCC(=O)NCCCC[C@H](NC(=O)[C@H](CO)NC(=O)[C@H](CC(=O)O)NC(=O)[C@H](CC(C)C)NC(=O)[C@H](Cc1ccc(O)cc1)NC(=O)[C@H](CCCCN)NC(=O)[C@H](CO)NC(=O)[C@H](Cc1ccc(O)cc1)NC(=O)[C@H](CC(=O)O)NC(=O)[C@H](CO)NC(=O)[C@@H](NC(=O)[C@H](Cc1ccccc1)NC(=O)[C@@H](NC(=O)CNC(=O)[C@H](Cc1c[nH]c2ccccc12)NC(=O)C(C)(C)NC(=O)[C@@H](N)Cc1c[nH]cn1)[C@@H](C)O)[C@@H](C)O)C(=O)N[C@@H](C)C(=O)N[C@@H](C)C(=O)N[C@@H](Cc1c[nH]cn1)C(=O)N[C@@H](CC(=O)O)C(=O)N[C@@H](Cc1ccccc1)C(=O)N[C@H](C(=O)N[C@@H](CCC(=O)O)C(=O)N[C@@H](Cc1c[nH]c2ccccc12)C(=O)N[C@@H](CC(C)C)C(=O)N[C@@H](CC(C)C)C(=O)N[C@@H](CO)C(=O)N[C@@H](C)C(N)=O)C(C)C)C(=O)O
Take B3: the “EC50 (nM) GluR, cAMP formation” value in test [1] worked out at 43 nM. Further, the “EC50 (nM) GLP-1R, cAMP formation” value in test [2] was determined as 5.8 nM.

B4: Compound 17 (peptide)
peptide: H-H[Aib]AGTFTSDYSKYLDSK([γGlu-Palmitoyl])AAHDFVEWLLSA-NH2
SMILES: CCCCCCCCCCCCCCCC(=O)N[C@@H](CCC(=O)NCCCC[C@H](NC(=O)[C@H](CO)NC(=O)[C@H](CC(=O)O)NC(=O)[C@H](CC(C)C)NC(=O)[C@H](Cc1ccc(O)cc1)NC(=O)[C@H](CCCCN)NC(=O)[C@H](CO)NC(=O)[C@H](Cc1ccc(O)cc1)NC(=O)[C@H](CC(=O)O)NC(=O)[C@H](CO)NC(=O)[C@@H](NC(=O)[C@H](Cc1ccccc1)NC(=O)[C@@H](NC(=O)CNC(=O)[C@H](C)NC(=O)C(C)(C)NC(=O)[C@@H](N)Cc1c[nH]cn1)[C@@H](C)O)[C@@H](C)O)C(=O)N[C@@H](C)C(=O)N[C@@H](C)C(=O)N[C@@H](Cc1c[nH]cn1)C(=O)N[C@@H](CC(=O)O)C(=O)N[C@@H](Cc1ccccc1)C(=O)N[C@H](C(=O)N[C@@H](CCC(=O)O)C(=O)N[C@@H](Cc1c[nH]c2ccccc12)C(=O)N[C@@H](CC(C)C)C(=O)N[C@@H](CC(C)C)C(=O)N[C@@H](CO)C(=O)N[C@@H](C)C(N)=O)C(C)C)C(=O)O
With B4, the “EC50 (nM) GluR, cAMP formation” value in test [1] came out at 3.4 nM. The “EC50 (nM) GLP-1R, cAMP formation” value in test [2] came to 0.09 nM.

B5: Compound 13 (peptide)
peptide: H-H[Aib]LGTFTSDYSKYLDSK([γGlu-Palmitoyl])AAHDFVEWLLSA-NH2
SMILES: CCCCCCCCCCCCCCCC(=O)N[C@@H](CCC(=O)NCCCC[C@H](NC(=O)[C@H](CO)NC(=O)[C@H](CC(=O)O)NC(=O)[C@H](CC(C)C)NC(=O)[C@H](Cc1ccc(O)cc1)NC(=O)[C@H](CCCCN)NC(=O)[C@H](CO)NC(=O)[C@H](Cc1ccc(O)cc1)NC(=O)[C@H](CC(=O)O)NC(=O)[C@H](CO)NC(=O)[C@@H](NC(=O)[C@H](Cc1ccccc1)NC(=O)[C@@H](NC(=O)CNC(=O)[C@H](CC(C)C)NC(=O)C(C)(C)NC(=O)[C@@H](N)Cc1c[nH]cn1)[C@@H](C)O)[C@@H](C)O)C(=O)N[C@@H](C)C(=O)N[C@@H](C)C(=O)N[C@@H](Cc1c[nH]cn1)C(=O)N[C@@H](CC(=O)O)C(=O)N[C@@H](Cc1ccccc1)C(=O)N[C@H](C(=O)N[C@@H](CCC(=O)O)C(=O)N[C@@H](Cc1c[nH]c2ccccc12)C(=O)N[C@@H](CC(C)C)C(=O)N[C@@H](CC(C)C)C(=O)N[C@@H](CO)C(=O)N[C@@H](C)C(N)=O)C(C)C)C(=O)O
B5: the “EC50 (nM) GluR, cAMP formation” value in test [1] worked out at 11 nM. For the same molecule, in test [2], the “EC50 (nM) GLP-1R, cAMP formation” value is 0.28 nM.

B6: Compound 18 (peptide)
peptide: H-H[Aib]SGTFTSDYSKYLDSK([γGlu-Palmitoyl])AAHDFVEWLLSA-NH2
SMILES: CCCCCCCCCCCCCCCC(=O)N[C@@H](CCC(=O)NCCCC[C@H](NC(=O)[C@H](CO)NC(=O)[C@H](CC(=O)O)NC(=O)[C@H](CC(C)C)NC(=O)[C@H](Cc1ccc(O)cc1)NC(=O)[C@H](CCCCN)NC(=O)[C@H](CO)NC(=O)[C@H](Cc1ccc(O)cc1)NC(=O)[C@H](CC(=O)O)NC(=O)[C@H](CO)NC(=O)[C@@H](NC(=O)[C@H](Cc1ccccc1)NC(=O)[C@@H](NC(=O)CNC(=O)[C@H](CO)NC(=O)C(C)(C)NC(=O)[C@@H](N)Cc1c[nH]cn1)[C@@H](C)O)[C@@H](C)O)C(=O)N[C@@H](C)C(=O)N[C@@H](C)C(=O)N[C@@H](Cc1c[nH]cn1)C(=O)N[C@@H](CC(=O)O)C(=O)N[C@@H](Cc1ccccc1)C(=O)N[C@H](C(=O)N[C@@H](CCC(=O)O)C(=O)N[C@@H](Cc1c[nH]c2ccccc12)C(=O)N[C@@H](CC(C)C)C(=O)N[C@@H](CC(C)C)C(=O)N[C@@H](CO)C(=O)N[C@@H](C)C(N)=O)C(C)C)C(=O)O
With B6, the “EC50 (nM) GluR, cAMP formation” value in test [1] came to 8 nM. Besides, in test [2], the “EC50 (nM) GLP-1R, cAMP formation” value was 0.09 nM.

B7: Compound 16 (peptide)
peptide: H-H[Aib]VGTFTSDYSKYLDSK([γGlu-Palmitoyl])AAHDFVEWLLSA-NH2
SMILES: CCCCCCCCCCCCCCCC(=O)N[C@@H](CCC(=O)NCCCC[C@H](NC(=O)[C@H](CO)NC(=O)[C@H](CC(=O)O)NC(=O)[C@H](CC(C)C)NC(=O)[C@H](Cc1ccc(O)cc1)NC(=O)[C@H](CCCCN)NC(=O)[C@H](CO)NC(=O)[C@H](Cc1ccc(O)cc1)NC(=O)[C@H](CC(=O)O)NC(=O)[C@H](CO)NC(=O)[C@@H](NC(=O)[C@H](Cc1ccccc1)NC(=O)[C@@H](NC(=O)CNC(=O)[C@@H](NC(=O)C(C)(C)NC(=O)[C@@H](N)Cc1c[nH]cn1)C(C)C)[C@@H](C)O)[C@@H](C)O)C(=O)N[C@@H](C)C(=O)N[C@@H](C)C(=O)N[C@@H](Cc1c[nH]cn1)C(=O)N[C@@H](CC(=O)O)C(=O)N[C@@H](Cc1ccccc1)C(=O)N[C@H](C(=O)N[C@@H](CCC(=O)O)C(=O)N[C@@H](Cc1c[nH]c2ccccc12)C(=O)N[C@@H](CC(C)C)C(=O)N[C@@H](CC(C)C)C(=O)N[C@@H](CO)C(=O)N[C@@H](C)C(N)=O)C(C)C)C(=O)O
B7: the “EC50 (nM) GluR, cAMP formation” value in test [1] stood at 3 nM. The “EC50 (nM) GLP-1R, cAMP formation” value in test [2] was determined as 0.13 nM.

B8: Compound 20 (peptide)
peptide: H-H[Aib]GGTFTSDYSKYLDSK([γGlu-Palmitoyl])AAHDFVEWLLSA-NH2
SMILES: CCCCCCCCCCCCCCCC(=O)N[C@@H](CCC(=O)NCCCC[C@H](NC(=O)[C@H](CO)NC(=O)[C@H](CC(=O)O)NC(=O)[C@H](CC(C)C)NC(=O)[C@H](Cc1ccc(O)cc1)NC(=O)[C@H](CCCCN)NC(=O)[C@H](CO)NC(=O)[C@H](Cc1ccc(O)cc1)NC(=O)[C@H](CC(=O)O)NC(=O)[C@H](CO)NC(=O)[C@@H](NC(=O)[C@H](Cc1ccccc1)NC(=O)[C@@H](NC(=O)CNC(=O)CNC(=O)C(C)(C)NC(=O)[C@@H](N)Cc1c[nH]cn1)[C@@H](C)O)[C@@H](C)O)C(=O)N[C@@H](C)C(=O)N[C@@H](C)C(=O)N[C@@H](Cc1c[nH]cn1)C(=O)N[C@@H](CC(=O)O)C(=O)N[C@@H](Cc1ccccc1)C(=O)N[C@H](C(=O)N[C@@H](CCC(=O)O)C(=O)N[C@@H](Cc1c[nH]c2ccccc12)C(=O)N[C@@H](CC(C)C)C(=O)N[C@@H](CC(C)C)C(=O)N[C@@H](CO)C(=O)N[C@@H](C)C(N)=O)C(C)C)C(=O)O
As for B8, the “EC50 (nM) GluR, cAMP formation” value in test [1] stood at 26 nM. Moreover, in test [2], the “EC50 (nM) GLP-1R, cAMP formation” value was found to be 0.21 nM and the “EC50 (nM) GLP-1R, cAMP formation, earlier determination” value is 0.89 nM.
